From patent US8097440B1, “Engineered microorganisms capable of producing target compounds under anaerobic conditions” (Gevo, Inc., priority 2008, dated 2012)

How the values were obtained:
[1] = test system: CC(C)C=O; assay: cells, lysate or membranes; conditions: conversion to isobutanol
[2] = substrate: NC(=O)C1=CN([C@@H]2O[C@H](COP(=O)(O)OP(=O)(O)OC[C@H]3O[C@@H](n4cnc5c(N)ncnc54)[C@H](O)[C@@H]3O)[C@@H](O)[C@H]2O)C=CC1; assay: KARI cuvette assay, purified Ec_IlvC^Q110A-his6; assay type: biochemical, E. coli
Protocol: (§1) KARI cuvette assay: KARI activity was assayed kinetically by monitoring the decrease in NAD(P)H concentration by measuring the absorbance at 340 nm. A reaction buffer was prepared containing 250 mM potassium phosphate pH 7, 1 mM DTT and 10 mM MgCl2. Cell pellets were resuspended (0.25 g wet weight/mL buffer) in 250 mM potassium phosphate (KPi) buffer containing 1 mM DTT and 10 mM MgCl2. The resuspended cells were lysed by sonication for 1 min with a 50% duty cycle and pelleted at 11000×g and 4° C. for 15 min. A reaction mixture consisting of 910 μl reaction buffer, 50 μl acetolactate, and 20 μl lysate was prepared in a cuvette. The reaction was initiated by addition of 20 μL of 10 mM NAD(P)H. A substrate free control was conducted using reaction buffer without the addition of acetolactate.
(§2) Purification of KARI: Cell pellets used for purification were resuspended in purification buffer A (20 mM Tris, 20 mM imidazol, 100 mM NaCl, 10 mM MgCl2, pH 7.4). KARI was purified by IMAC (Immobilized metal affinity chromatography) over a 1 ml Histrap High Performance (histrap HP) column pre-charged with Nickel (GE Healthcare) using an Akta FPLC system (GE Healthcare). […]

[3] = substrate: CC(C)C=O; assay: Alcohol dehydrogenase kinetic assay, Ec_FucO; assay type: biochemical, E. coli; conditions: conversion to isobutanol
Protocol: (§3) E. coli strain GEVO1745 was transformed by electroporation with one of plasmids pGV1705-A, pGV1748-A, pGV1749-A, or pGV1778-A. 50 mL of TB medium (23.1 g/L KH2PO4, 125.4 g/L K2HPO4, 12 g/L Bacto-tryptone, 24 g/L yeast extract, 4 ml/L glycerol) were inoculated to an initial OD600 of 0.2 using a 3 mL overnight LB culture of a single colony. The 50 mL culture was allowed to grow for 3-4 hrs at 250 rpm and 37° C. Protein expression was induced at an OD600 of 2-2.5 by the addition of IPTG to a final concentration of 1 mM. After the addition of IPTG, protein expression was allowed to continue for 20-24 hours at 225 rpm and 25° C.
(§4) Alcohol dehydrogenase (ADH) activity was assayed kinetically by monitoring the decrease in NAD(P)H concentration by measuring the absorbance at 340 nm. A reaction buffer was prepared containing 0.1 M potassium phosphate, 0.4 mM NAD(P)H, 10 mM isobutyraldehyde, 1 mM DTT, and 1 mM PMSF. Cell pellets were resuspended in 0.1 M potassium phosphate buffer containing 1 mM DTT and 1 mM PMSF at one fifth of the culture volume, i.e. 10 mL resuspension buffer for cell pellet from a 50 mL culture. The resuspended cells were lysed by sonication for 1 min with a 50% duty cycle. The reaction was initiated by the addition of 0.5 mL of the reaction buffer to 0.5 mL of clarified lysate in a cuvette. […]

[4] = substrate: NC(=O)C1=CN([C@@H]2O[C@H](COP(=O)(O)OP(=O)(O)OC[C@H]3O[C@@H](n4cnc5c(N)ncnc54)[C@H](O)[C@@H]3O)[C@@H](O)[C@H]2O)C=CC1; assay: KARI cuvette assay, purified Ec_IlvC^Q110V-his6; assay type: biochemical, E. coli
Protocol: as §1, §2

[5] = substrate: CC(C)C=O; assay: Alcohol dehydrogenase kinetic assay, Dm_Adh; assay type: biochemical, Drosophila melanogaster; conditions: conversion to isobutanol
Protocol: as §3, §4

[6] = other: purified, acetolactate as substrate

## Klebsiella pneumoniae propanediol dehydrogenase Kp_DhaT, SEQ ID NO: 63 (Klebsiella pneumoniae)
[1]; other: NADH as cofactor
  Km: 1300 µM
[1]; other: NADPH as cofactor
  Km: 600 µM

B1: E. coli KARI Ec_IlvC variant Ec_IlvC^Q110A-his6 (Q110A), SEQ ID NO: 21 (Escherichia coli K-12; Q110A) (protein)
chain: MANYFNTLNLRQQLAQLGKCRFMGRDEFADGASYLQGKKVVIVGCGAQGLNQGLNMRDSGLDISYALRKEAIAEKRASWRKATENGFKVGTYEELIPQADLVINLTPDKAHSDVVRTVQPLMKDGAALGYSHGFNIVEVGEQIRKDITVVMVAPKCPGTEVREEYKRGFGVPTLIAVHPENDPKGEGMAIAKAWAAATGGHRAGVLESSFVAEVKSDLMGEQTILCGMLQAGSLLCFDKLVEEGTDPAYAEKLIQFGWETITEALKQGGITLMMDRLSNPAKLRAYALSEQLKEIMAPLFQKHMDDIISGEFSSGMMADWANDDKKLLTWREETGKTAFETAPQYEGKIGEQEYFDKGVLMIAMVKAGVELAFETMVDSGIIEESAYYESLHELPLIANTIARKRLYEMNVVISDTAEYGNYLFSYACVPLLKPFMAELQPGDLGKAIPEGAVDNGQLRDVNEAIRSHAIEQVGKKLRGYMTDMKRIAVAGLEHHHHH
[2]; [6]
  kcat/Km: 11100 M⁻¹ s⁻¹
[2]; with NADH
  kcat/Km: 302000 M⁻¹ s⁻¹

B2: Escherichia coli propanediol dehydrogenase Ec_FucO, SEQ ID NO: 65 (Escherichia coli K-12) (protein)
chain: MMANRMILNETAWFGRGAVGALTDEVKRRGYQKALIVTDKTLVQCGVVAKVTDKMDAAGLAWAIYDGVVPNPTITVVKEGLGVFQNSGADYLIAIGGGSPQDTCKAIGIISNNPEFADVRSLEGLSPTNKPSVPILAIPTTAGTAAEVTINYVITDEEKRRKFVCVDPHDIPQVAFIDADMMDGMPPALKAATGVDALTHAIEGYITRGAWALTDALHIKAIEIIAGALRGSVAGDKDAGEEMALGQYVAGMGFSNVGLGLVHGMAHPLGAFYNTPHGVANAILLPHVMRYNADFTGEKYRDIARVMGVKVEGMSLEEARNAAVEAVFALNRDVGIPPHLRDVGVRKEDIPALAQAALDDVCTGGNPREATLEDIVELYHTAW
notes: clarified crude lysate
[3]; other: NADH as cofactor
  Km: 800 µM
[3]; other: NADPH as cofactor
  Km: 200 µM

B3: E. coli KARI Ec_IlvC variant Ec_IlvC^Q110V-his6 (Q110V), SEQ ID NO: 23 (Escherichia coli K-12; Q110V) (protein)
chain: MANYFNTLNLRQQLAQLGKCRFMGRDEFADGASYLQGKKVVIVGCGAQGLNQGLNMRDSGLDISYALRKEAIAEKRASWRKATENGFKVGTYEELIPQADLVINLTPDKVHSDVVRTVQPLMKDGAALGYSHGFNIVEVGEQIRKDITVVMVAPKCPGTEVREEYKRGFGVPTLIAVHPENDPKGEGMAIAKAWAAATGGHRAGVLESSFVAEVKSDLMGEQTILCGMLQAGSLLCFDKLVEEGTDPAYAEKLIQFGWETITEALKQGGITLMMDRLSNPAKLRAYALSEQLKEIMAPLFQKHMDDIISGEFSSGMMADWANDDKKLLTWREETGKTAFETAPQYEGKIGEQEYFDKGVLMIAMVKAGVELAFETMVDSGIIEESAYYESLHELPLIANTIARKRLYEMNVVISDTAEYGNYLFSYACVPLLKPFMAELQPGDLGKAIPEGAVDNGQLRDVNEAIRSHAIEQVGKKLRGYMTDMKRIAVAGLEHHHHHH
[4]; [6]
  kcat/Km: 24800 M⁻¹ s⁻¹
[4]; with NADH
  kcat/Km: 569000 M⁻¹ s⁻¹

B4: Drosophila melanogaster alcohol dehydrogenase Dm_Adh, SEQ ID NO: 61 (Drosophila melanogaster) (protein)
chain: MSFTLTNKNVIFVAGLGGIGLDTSKELLKRDLKNLVILDRIENPAAIAELKAINPKVTVTFYPYDVTVPIAETTKLLKTIFAQLKTVDVLINGAGILDDHQIERTIAVNYTGLVNTTTAILDFWDKRKGGPGGIICNIGSVTGFNAIYQVPVYSGTKAAVVNFTSSLAKLAPITGVTAYTVNPGITRTTLVHTFNSWLDVEPQVAEKLLAHPTQPSLACAENFVKAIELNQNGAIWKLDLGTLEAIQWTKHWDSGI
notes: clarified crude lysate
[5]; other: NADH as cofactor
  Km: 900 µM
[5]; other: NADPH as cofactor
  Km: 2700 µM
